Experimental data from patent US20240294593A1 (Genentech, published 2024).
Where a chain is given by its changes, count along the chain named. Names may count otherwise.

B1: H1.12_L1 (antibody, human IgG1, kappa, V domains shown)
VH: EVQLVESGGGLVQPGGSLRLSCAASGFTFSGFGMHWVRQAPGKGLEWVSYISSGSSIIYYADSVKGRFTISRDNAKNSLYLQMNSLRAEDTAVYYCARGGRLVWSPDYWGQGTLVTVSS
VL: DIVMTQSPDSLAVSLGERATINCKSSQSLLNSGNQKNYLTWYQQKPGQPPKLLIYWASTRESGVPDRFTGSGSGTDFTLTISSLQAEDVAVYYCQNDYSYPFTFGSGTKLEIKR
notes: also called VH-S31G; Kabat 31G; copies: 2 + 2
B2: H1.21_L1 (antibody, human IgG1, kappa, V domains shown)
VH: B1 VH with G31S, F32I
VL: B1 VL
notes: also called VH-F34I; Kabat 32I; copies: 2 + 2
B3: H1.28_L1 (antibody, human IgG1, kappa, V domains shown)
VH: B1 VH with G31S, G33T
VL: B1 VL
notes: also called VH-G35T; Kabat 33T; copies: 2 + 2
B4: H1.31_L1 (antibody, human IgG1, kappa, V domains shown)
VH: B1 VH with G31S, G33D
VL: B1 VL
notes: also called VH-G35D; Kabat 33D; copies: 2 + 2
B5: H1.17_L1 (antibody, human IgG1, kappa, V domains shown)
VH: B1 VH with G31Y
VL: B1 VL
notes: also called VH-S31Y; Kabat 31Y; copies: 2 + 2
B6: H1.25_L1 (antibody, human IgG1, kappa, V domains shown)
VH: B1 VH with G31S, F32K
VL: B1 VL
notes: also called VH-F34K; Kabat 32K; copies: 2 + 2
B7: mAb C H1.19_L1 (antibody, name in Kabat numbering, V domains shown)
VH: B1 VH with G31S, F32L
VL: DIVMTQSPDSLAVSLGERATINCKSSQSLLNSGNQKNYLTWYQQKPGQPPKLLIYWASTRESGVPDRFTGSGSGTDFTLTISSLQAEDVAVYYCQNDYSYPFTFGSGTKLEIK
B8: H1.15_L1 (antibody, human IgG1, kappa, V domains shown)
VH: B1 VH with G31D
VL: B1 VL
notes: also called VH-S31D; Kabat 31D; copies: 2 + 2
B9: H1.18_L1 (antibody, human IgG1, kappa, V domains shown)
VH: B1 VH with G31S, F32Y
VL: B1 VL
notes: also called VH-F34Y; Kabat 32Y; copies: 2 + 2
B10: H1.23_L1 (antibody, human IgG1, kappa, V domains shown)
VH: B1 VH with G31S, F32Q
VL: B1 VL
notes: also called VH-F34Q; Kabat 32Q
B11: H1.20_L1 (antibody, human IgG1, kappa, V domains shown)
VH: B1 VH with G31S, F32W
VL: B1 VL
notes: also called VH-F34W; Kabat 32W; copies: 2 + 2
B12: H1.26_L1 (antibody, human IgG1, kappa, V domains shown)
VH: B1 VH with G31S, G33A
VL: B1 VL
notes: also called VH-G35A; Kabat 33A; copies: 2 + 2
B13: H1.29_L1 (antibody, human IgG1, kappa, V domains shown)
VH: B1 VH with G31S, G33N
VL: B1 VL
notes: also called VH-G35N; Kabat 33N
B14: H1.30_L1 (antibody, human IgG1, kappa, V domains shown)
VH: B1 VH with G31S, G33H
VL: B1 VL
notes: also called VH-G35H; Kabat 33H
B15: H1.16_L1 (antibody, human IgG1, kappa, V domains shown)
VH: B1 VH with G31K
VL: B1 VL
notes: also called VH-S31K; Kabat 31K; copies: 2 + 2
B16: H1.27_L1 (antibody, human IgG1, kappa, V domains shown)
VH: B1 VH with G31S, G33S
VL: B1 VL
notes: also called VH-G35S; Kabat 33S; copies: 2 + 2
B17: H1.24_L1 (antibody, human IgG1, kappa, V domains shown)
VH: B1 VH with G31S, F32S
VL: B1 VL
notes: also called VH-F34S; Kabat 32S; copies: 2 + 2
B18: H1.36_L1 (antibody, human IgG1, kappa, V domains shown)
VH: B1 VH with G31S, S52T
VL: B1 VL
notes: also called VH-S54T; Kabat 52T; copies: 2 + 2
B19: H1.14_L1 (antibody, human IgG1, kappa, V domains shown)
VH: B1 VH with G31H
VL: B1 VL
notes: also called VH-S31H; Kabat 31H; copies: 2 + 2
B20: H1.13_L1 (antibody, human IgG1, kappa, V domains shown)
VH: B1 VH with G31V
VL: B1 VL
notes: also called VH-S31V; Kabat 31V; copies: 2 + 2
B21: H1.22_L1 (antibody, human IgG1, kappa, V domains shown)
VH: B1 VH with G31S, F32H
VL: B1 VL
notes: also called VH-F34H; Kabat 32H; copies: 2 + 2
B22: H1.115_L1 (antibody, V domains shown)
VH: B1 VH with G31S, G100A
VL: B1 VL
notes: also called VH-G108A; Kabat 96
B23: H1.129_L1 (antibody, V domains shown)
VH: B1 VH with G31S, R101G
VL: B1 VL
notes: also called VH-R109G; Kabat 97
B24: H1.126_L1 (antibody, V domains shown)
VH: B1 VH with G31S, R101D
VL: B1 VL
notes: also called VH-R109D; Kabat 97
B25: H1.134_L1 (antibody, V domains shown)
VH: B1 VH with G31S, L102F
VL: B1 VL
notes: also called VH-L110F; Kabat 98
B26: H1.114_L1 (antibody, V domains shown)
VH: B1 VH with G31S, G99Y
VL: B1 VL
notes: also called VH-G103Y; Kabat 95
B27: H1.118_L1 (antibody, V domains shown)
VH: B1 VH with G31S, G100Q
VL: B1 VL
notes: also called VH-G108Q; Kabat 96
B28: H1.124_L1 (antibody, V domains shown)
VH: B1 VH with G31S, R101K
VL: B1 VL
notes: also called VH-R109K; Kabat 97
B29: H1.128_L1 (antibody, V domains shown)
VH: B1 VH with G31S, R101S
VL: B1 VL
notes: also called VH-R109S; Kabat 97
B30: H1.125_L1 (antibody, human IgG1, kappa, V domains shown)
VH: B1 VH with G31S, R101E
VL: B1 VL
notes: also called VH-R109E; Kabat 97; copies: 2 + 2
B31: H1.117_L1 (antibody, V domains shown)
VH: B1 VH with G31S, G100T
VL: B1 VL
notes: also called VH-G108T; Kabat 96
B32: H1.133_L1 (antibody, V domains shown)
VH: B1 VH with G31S, L102I
VL: B1 VL
notes: also called VH-L110I; Kabat 98
B33: H1.131_L1 (antibody, V domains shown)
VH: B1 VH with G31S, R101I
VL: B1 VL
notes: also called VH-R109I; Kabat 97
B34: H1.127_L1 (antibody, V domains shown)
VH: B1 VH with G31S, R101H
VL: B1 VL
notes: also called VH-R109H; Kabat 97
B35: H1.123_L1 (antibody, V domains shown)
VH: B1 VH with G31S, G100Y
VL: B1 VL
notes: also called VH-G108Y; Kabat 96
B36: H1.119_L1 (antibody, V domains shown)
VH: B1 VH with G31S, G100H
VL: B1 VL
notes: also called VH-G108H; Kabat 96
B37: H1.130_L1 (antibody, human IgG1, kappa, V domains shown)
VH: B1 VH with G31S, R101Y
VL: B1 VL
notes: also called VH-R109Y; Kabat 97; copies: 2 + 2
B38: H1.116_L1 (antibody, V domains shown)
VH: B1 VH with G31S, G100S
VL: B1 VL
notes: also called VH-G108S; Kabat 96

molecular target: T1, human PD-1-His (human, UniProt Q15116 25-167, limits assumed); assay: Octet
T1 construct: Antigen of the Octet assays; not shown: His tag
T1 sequence (Q15116 25-167 limits assumed): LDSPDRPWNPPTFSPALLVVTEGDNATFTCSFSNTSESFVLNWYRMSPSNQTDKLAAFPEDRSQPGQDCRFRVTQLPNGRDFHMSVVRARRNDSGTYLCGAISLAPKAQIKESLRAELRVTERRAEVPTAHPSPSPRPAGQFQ

Binder	Kd [nM]	koff [s⁻¹]	kon [M⁻¹ s⁻¹]
B1	44.2	0.00537	122000
B2	27.2	0.00371	137000
B3	92.7	0.0279	301000
B4	56.4	0.0401	711000
B5	50.4	0.00534	106000
B6	113	0.012	107000
B7	16.7	0.00217	130000
B8	40	0.00557	139000
B9	47.9	0.00597	125000
B10	73.4	0.00863	118000
B11	162	0.0204	126000
B12	193	0.036	187000
B13	223	0.0437	196000
B14	76.4	0.0257	337000
B15	47.1	0.00514	109000
B16	104	0.0142	137000
B17	54.9	0.00688	125000
B18	374	0.046	123000
B19	45.8	0.00546	119000
B20	50.2	0.00634	126000
B21	34	0.00358	105000

molecular target: T1, human PD-1-His; assay: Octet; remark: another data set of the same source

Binder	Kd [nM]	koff [s⁻¹]	kon [M⁻¹ s⁻¹]
B22	76.7	0.0116	151000
B23	43.2	0.00719	167000
B24	43.1	0.0109	254000
B25	60.8	0.0088	145000
B26	592	0.0875	148000
B27	192	0.0316	164000
B28	48.8	0.00674	138000
B29	32.8	0.00608	186000
B30	18.7	0.0052	278000
B31	121	0.0105	86900
B32	49.5	0.00753	152000
B33	43.5	0.00878	202000
B34	30.8	0.00578	188000
B35	350	0.0538	154000
B36	186	0.0376	202000
B37	22.1	0.00505	228000
B38	183	0.0347	190000
